Experimental data from patent US20260224721A1, “ANTI-CD70 ANTIBODY-DRUG CONJUGATES” (Ambrx, Inc., priority 2023, published 2026).
Square brackets hold non-standard residues; d marks the D form. Peptide text beside a SMILES is read from it. * marks the point of attachment. Dolaproine = CO[C@@H]([C@@H]1CCCN1)[C@@H](C)C(=O)O; Dil = CC[C@H](C)[C@H](NC)[C@@H](CC(=O)O)OC; X1 = CC(C)[C@@H](C(=O)*)N(C)CCOCCOCCOCCON; X2 = C[C@@H](N*)[C@@H](O)c1ccccc1; NMeV = CN[C@H](C(=O)O)C(C)C

Tests used:
[1] = biological target: T1, MDR/P-gp (Homo sapiens, UniProt P08183); conditions: cited from earlier work
[2] = biological target: T2, BCRP (Homo sapiens, UniProt Q9UNQ0); assay: BCRP substrate assessment; type: in vitro ADME; conditions: data not shown
T2 sequence (Q9UNQ0 1-655): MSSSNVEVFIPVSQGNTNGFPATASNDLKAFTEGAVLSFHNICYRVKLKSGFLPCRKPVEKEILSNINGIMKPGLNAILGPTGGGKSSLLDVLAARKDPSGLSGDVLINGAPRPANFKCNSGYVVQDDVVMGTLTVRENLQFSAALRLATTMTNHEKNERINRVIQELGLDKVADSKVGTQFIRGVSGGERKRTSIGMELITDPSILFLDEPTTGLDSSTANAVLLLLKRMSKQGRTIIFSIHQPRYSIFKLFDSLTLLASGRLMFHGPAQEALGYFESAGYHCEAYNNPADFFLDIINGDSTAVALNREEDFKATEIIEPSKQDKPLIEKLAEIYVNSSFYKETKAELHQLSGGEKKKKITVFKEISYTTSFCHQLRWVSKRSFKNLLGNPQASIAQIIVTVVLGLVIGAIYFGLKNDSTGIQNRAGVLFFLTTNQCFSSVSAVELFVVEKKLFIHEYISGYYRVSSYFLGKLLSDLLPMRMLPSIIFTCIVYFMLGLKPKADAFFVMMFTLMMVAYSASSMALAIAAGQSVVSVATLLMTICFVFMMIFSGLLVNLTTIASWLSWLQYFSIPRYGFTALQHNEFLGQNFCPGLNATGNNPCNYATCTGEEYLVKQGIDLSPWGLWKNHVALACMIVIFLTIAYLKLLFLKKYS

[3] = biological target: T1, MDR/P-gp; assay: MDR pump substrate assessment; type: in vitro ADME; conditions: data not shown
[4] = test system: 786-OS3 renal carcinoma cells; assay: 786-OS3/PBMC renal cell carcinoma xenograft model, ARX305 and pembrolizumab; type: in vivo, NCG mice; conditions: study day 36, 5.0 mg/kg dose of pembrolizumab alone, IP QW × 4
Experimental: ARX305 in combination with a checkpoint inhibitor, such as a PD-1/PD-L1 inhibitor, were tested in a renal cell carcinoma (RCC) model. For RCC, ARX305 in combination of pembrolizumab (PD-1 inhibitor) were evaluated in a cell line-derived xenograft tumor model: 786-OS3.
Female NCG mice were housed five (5) per cage in a pathogen-free, limited access room. Food and water were provided ad libitum. Mice were subcutaneously inoculated in the right flank with 5×10^6 786-OS3 renal carcinoma cells mixed with Matrigel. Tumor volumes were measured twice weekly. When tumors reached from about 175 mm^3 to about 200 mm^3 in size, mice were randomized into five (5) groups of 10 mice with approximately equal average tumor volumes. Cryopreserved peripheral blood mononuclear cells (PBMCs) from a single healthy donor were thawed and cultured in Roswell Park Memorial Institut (RPMI) medium+10% fetal bovine serum at 37° C. for 24 hours. PBMCs were harvested and intraperitoneally injected into tumor-bearing mice (10^7/mouse). After 24 hours, mice were injected with vehicle, pembrolizumab (5 mg/kg), ARX305 (0.3 mg/kg), or pembrolizumab (5 mg/kg)+ARX305 (0.3 mg/kg). Dosing was repeated for pembrolizumab weekly for a total of 4 doses and ARX305 every other week for a total of 2 doses. […] Tumor volumes were continually measured twice weekly and FIG. 15 show mean tumor volumes +/−SEM for each group.

[5] = biological target: T3, mouse CD70 protein (mouse, UniProt O55237 45-195, limits assumed); assay: SPR (Biacore), ADC captured by anti-human IgG (Fc) on CM5 chip, CD70 as analyte
T3 construct: SPR analyte; construct not described; also called rodent CD70
T3 sequence (looked up): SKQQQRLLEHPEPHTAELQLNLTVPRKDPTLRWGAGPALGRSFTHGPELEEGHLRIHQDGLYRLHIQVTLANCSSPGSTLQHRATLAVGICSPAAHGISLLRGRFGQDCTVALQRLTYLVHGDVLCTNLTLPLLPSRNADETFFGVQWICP
Experimental: (§1) Surface plasmon resonance assays were developed in which anti-human IgG (Fc) was diluted to 25 μg/mL in immobilization buffer ([…] Sodium Acetate, pH 5.0) and injected to an activated CM5 sensor chip for 360 seconds at a flow rate of 10 μL/minute. […] After each cycle of interaction analysis, the sensor chip surface was regenerated with 3M magnesium chloride at a flow rate of 20 uL/minute for 30 seconds. Affinity analysis was performed using Biacore Insight Evaluation software, reference channel was used for background subtraction, and a 1:1 binding method was used for curve fitting.

[6] = biological target: T4, human CD70 protein (human, UniProt P32970 39-193); assay: SPR
T4 chain: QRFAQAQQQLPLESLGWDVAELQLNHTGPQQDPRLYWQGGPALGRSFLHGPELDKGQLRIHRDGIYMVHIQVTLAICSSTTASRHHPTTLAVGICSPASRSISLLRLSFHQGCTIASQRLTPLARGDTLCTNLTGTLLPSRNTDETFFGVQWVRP

[7] = biological target: T5, cynomolgus CD70 protein (cynomolgus, UniProt A0A2K5WTU9 39-190); assay: SPR
T5 chain: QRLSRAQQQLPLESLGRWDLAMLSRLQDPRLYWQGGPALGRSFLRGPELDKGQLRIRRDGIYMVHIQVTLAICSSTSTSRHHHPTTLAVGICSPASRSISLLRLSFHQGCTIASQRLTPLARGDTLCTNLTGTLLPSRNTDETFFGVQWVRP

[8] = biological target: T6, CD70 on the surface of human tumor cell lines (human, UniProt P32970 1-193); assay: cell-based or functional assay
T6 sequence (looked up): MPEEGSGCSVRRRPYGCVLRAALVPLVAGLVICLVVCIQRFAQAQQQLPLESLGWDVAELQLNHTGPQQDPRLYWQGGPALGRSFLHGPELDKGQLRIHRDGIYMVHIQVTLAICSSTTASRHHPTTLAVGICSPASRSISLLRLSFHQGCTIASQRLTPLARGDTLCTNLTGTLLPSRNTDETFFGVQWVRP

[9] = biological target: T7, cynomolgus CD70 protein (cynomolgus, UniProt A0A2K5WTU9 39-190); assay: SPR (Biacore), ADC captured by anti-human IgG (Fc) on CM5 chip, CD70 as analyte, 1:1 fit
T7 construct: SPR analyte; construct not described
T7 sequence: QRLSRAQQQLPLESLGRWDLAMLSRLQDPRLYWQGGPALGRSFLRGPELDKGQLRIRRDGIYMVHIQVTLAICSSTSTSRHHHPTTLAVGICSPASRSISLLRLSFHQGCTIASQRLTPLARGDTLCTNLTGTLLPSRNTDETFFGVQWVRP
Experimental: as §1

T1 sequence (P08183 whole entry): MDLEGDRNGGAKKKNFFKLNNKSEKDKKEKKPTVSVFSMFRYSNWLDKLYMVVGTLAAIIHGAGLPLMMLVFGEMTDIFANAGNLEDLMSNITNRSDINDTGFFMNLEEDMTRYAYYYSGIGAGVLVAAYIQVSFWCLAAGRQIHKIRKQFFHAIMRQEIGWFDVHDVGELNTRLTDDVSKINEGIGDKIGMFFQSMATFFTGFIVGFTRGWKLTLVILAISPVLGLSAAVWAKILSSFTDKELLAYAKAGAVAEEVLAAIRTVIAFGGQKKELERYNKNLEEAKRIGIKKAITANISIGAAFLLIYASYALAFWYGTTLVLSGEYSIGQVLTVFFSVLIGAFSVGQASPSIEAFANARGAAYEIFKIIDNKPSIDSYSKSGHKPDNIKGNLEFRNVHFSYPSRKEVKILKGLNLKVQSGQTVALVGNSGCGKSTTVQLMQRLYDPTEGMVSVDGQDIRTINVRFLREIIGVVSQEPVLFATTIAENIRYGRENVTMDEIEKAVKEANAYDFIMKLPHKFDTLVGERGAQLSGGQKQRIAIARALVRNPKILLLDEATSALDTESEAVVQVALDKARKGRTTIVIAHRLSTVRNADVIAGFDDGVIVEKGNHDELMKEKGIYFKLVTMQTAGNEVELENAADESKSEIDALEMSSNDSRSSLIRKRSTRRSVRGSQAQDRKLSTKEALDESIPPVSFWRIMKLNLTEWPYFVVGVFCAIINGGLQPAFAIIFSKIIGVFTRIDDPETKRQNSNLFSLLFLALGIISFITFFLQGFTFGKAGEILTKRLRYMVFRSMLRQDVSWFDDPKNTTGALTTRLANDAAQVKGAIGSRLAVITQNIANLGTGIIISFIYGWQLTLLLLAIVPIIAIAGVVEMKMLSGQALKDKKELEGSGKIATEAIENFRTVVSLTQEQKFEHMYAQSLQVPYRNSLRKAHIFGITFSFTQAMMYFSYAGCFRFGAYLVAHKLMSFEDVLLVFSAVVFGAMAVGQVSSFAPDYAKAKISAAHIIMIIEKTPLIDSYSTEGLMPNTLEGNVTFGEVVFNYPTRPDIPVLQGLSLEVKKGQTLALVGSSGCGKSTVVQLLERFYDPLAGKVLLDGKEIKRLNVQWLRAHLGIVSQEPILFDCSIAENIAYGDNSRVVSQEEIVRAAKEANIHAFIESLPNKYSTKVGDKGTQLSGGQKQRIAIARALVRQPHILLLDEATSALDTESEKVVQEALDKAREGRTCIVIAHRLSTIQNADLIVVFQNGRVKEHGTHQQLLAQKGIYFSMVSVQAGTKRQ

Molecule: CC[C@H](C)[C@@H]([C@@H](CC(=O)N1CCC[C@H]1[C@H](OC)[C@@H](C)C(=O)N[C@H](C)[C@@H](O)c1ccccc1)OC)N(C)C(=O)[C@@H](NC(=O)[C@@H](NC)C(C)C)C(C)C [MMAE, Monomethyl auristatin E] (H-[NMeV]V[Dil][Dolaproine]-X2)
- substrate for MDR pumps [1]: known substrate

Molecule: CC[C@H](C)[C@@H]([C@@H](CC(=O)N1CCC[C@H]1[C@H](OC)[C@@H](C)C(=O)N[C@@H](Cc1ccccc1)C(=O)O)OC)N(C)C(=O)[C@@H](NC(=O)[C@H](C(C)C)N(C)CCOCCOCCOCCON)C(C)C [AS269, ((2R,3R)-3-((S)-1-((3R,4S,5S)-4-((S)-2-((S)-14-(aminooxy)-2-isopropyl-3-methyl-6,9,12-trioxa-3-azatetradecanamido)-N,3-dimethylbutanamido)-3-methoxy-5-methylheptanoyl)pyrrolidin-2-yl)-3-methoxy-2-methylpropanoyl)-L-phenylalanine] (X1-V[Dil][Dolaproine]F-OH)
- substrate for BCRP [2]: not a substrate
- substrate for MDR/P-gp [3]: not a substrate

Molecule: pembrolizumab: PD-1 inhibitor [reference compound]
- tumor growth inhibition (TGI) [4]: 6%

B1: anti-CD70-AS269 ADC (antibody, human IgG1, kappa, V domains shown)
VH: EVQLVQSGAEVKKPGATVKISCKVSGYTFTDYYMNWVQQAPGKGLEWMGIINPYNGGTHYNQKFKGRVTITADTSTDTAYMELSSLRSEDTAVYYCATSGYDLYFDYWGQGTLVTVSS
VL: EIVMTQSPATLSVSPGERATLSCKASQNVGTAVAWYQQKPGQAPRLLIYSAFNRYNGIPARFSGSGPGTDFTLTISSLQSEDFAVYYCQQYSTYPLTFGGGTKVEIKR
modifications: para-acetyl-L-phenylalanine (pAF) at position 114 (Kabat numbering; the X of SEQ ID NO: 3), carrying drug-linker AS269 via an oxime bond
notes: Antibody-drug conjugate: humanized IgG1 mAb with one AS269 drug-linker per heavy chain, DAR about 2; also called ARX305; aCD70-AS269
- binding result [5]: no binding
- Kd [6]: 0.228 nM
- Kd [7]: 0.684 nM
- Cytotoxic Potency (IC50, nM), 786-O cells (CD70 surface expression 133,000) [8]: 0.167 nM
- Cytotoxic Potency (IC50, nM), C666-1 cells (CD70 surface expression 9,200) [8]: > 10 nM
- Cytotoxic Potency (IC50, nM), Caki-1 cells (CD70 surface expression 107,000) [8]: 0.125 nM
- Cytotoxic Potency (IC50, nM), Hs 611.T cells (CD70 surface expression 6,600) [8]: > 10 nM
- Cytotoxic Potency (IC50, nM), Hs766T cells (CD70 surface expression 9,500) [8]: > 10 nM
- Cytotoxic Potency (IC50, nM), KMS11 cells (CD70 surface expression 9,400) [8]: > 10 nM
- Cytotoxic Potency (IC50, nM), NCI-H40 cells (CD70 surface expression 14,900) [8]: 0.18 nM
- Cytotoxic Potency (IC50, nM), NCI-H929 cells (CD70 surface expression 0) [8]: > 10 nM
- Cytotoxic Potency (IC50, nM), REC-1 cells (CD70 surface expression 17,300) [8]: 0.18 nM
- Cytotoxic Potency (IC50, nM), Raji cells (CD70 surface expression 17,700) [8]: > 10 nM
- Cytotoxic Potency (IC50, nM), U251MG cells (CD70 surface expression 65,800) [8]: 0.04 nM
- Cytotoxic Potency (IC50, nM), U266 cells (CD70 surface expression 65,000) [8]: 0.025 nM
- fold difference of affinity between human and cynomolgus CD70 [9]: ≤ 3 fold
